Laboratory results taken from publication PMC3318979.

Tests used:
[1] = biological target: mitochondrial respiratory chain complex I (human) (UniProt Q16795); test: native gel or EMSA
[2] = biological target: mitochondrial respiratory chain complex III dimer (human) (UniProt P22695); test: native gel or EMSA
Chain of UniProt P22695 (P22695 whole entry, looked up, one chain of several): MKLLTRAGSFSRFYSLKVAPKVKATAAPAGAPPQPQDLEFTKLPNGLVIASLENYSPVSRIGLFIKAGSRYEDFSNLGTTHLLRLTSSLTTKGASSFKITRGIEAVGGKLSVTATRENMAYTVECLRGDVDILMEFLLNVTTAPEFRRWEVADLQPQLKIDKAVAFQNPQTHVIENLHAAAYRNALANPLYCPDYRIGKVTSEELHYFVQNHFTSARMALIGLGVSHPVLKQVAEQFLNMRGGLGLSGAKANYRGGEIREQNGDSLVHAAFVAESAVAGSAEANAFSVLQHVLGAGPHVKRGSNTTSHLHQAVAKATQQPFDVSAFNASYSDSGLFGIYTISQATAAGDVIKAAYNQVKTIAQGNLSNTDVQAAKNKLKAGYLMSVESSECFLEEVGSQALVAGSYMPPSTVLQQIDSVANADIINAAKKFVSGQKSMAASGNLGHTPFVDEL

Chain of UniProt Q16795 (Q16795 whole entry, looked up, one chain of several): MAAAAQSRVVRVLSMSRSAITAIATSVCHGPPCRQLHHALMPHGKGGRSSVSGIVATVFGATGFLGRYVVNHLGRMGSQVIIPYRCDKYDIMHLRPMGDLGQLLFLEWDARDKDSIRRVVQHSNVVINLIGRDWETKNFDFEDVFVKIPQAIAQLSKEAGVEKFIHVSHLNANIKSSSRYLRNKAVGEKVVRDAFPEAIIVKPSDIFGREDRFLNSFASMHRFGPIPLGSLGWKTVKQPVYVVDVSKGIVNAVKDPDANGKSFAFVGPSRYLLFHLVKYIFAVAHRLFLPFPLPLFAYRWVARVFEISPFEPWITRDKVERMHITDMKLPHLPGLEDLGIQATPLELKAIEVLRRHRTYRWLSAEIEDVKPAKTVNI

| percent of the subunits' signal in supercomplex III2+IV [2] [%] | Substance | percent of the subunits' signal in I+III2+IVn supercomplexes [1] [%] |
| --- | --- | --- |
|  | mitochondrial respiratory chain complex III dimer (from UniProt P22695 15-453; P47985 79-274) | 50 |
| 1 to 3 | mitochondrial respiratory chain complex IV (from UniProt P00395 1-513; P00403 1-227; P13073 23-169; P20674 42-150; P09669 1-75) |  |
